Test results as given in the supplement of paper PMC10567573.

B1: KLHL14 (parent)
chain: CAVLDDSIYLVGGYSWSMGAYKSS

Variants of: B1
Experiment: protein stability index of a GFP-peptide fusion (GPS, HEK-293T) (PSI 1-6); higher = more stable
Conditions: c terminus: a fixed tail appended
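Note: lentivirally expressed fusions sorted by FACS into six bins by GFP to DsRed ratio, PSI derived from sequencing read proportions per bin multiplied by bin number.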

Protein stability index: each site, then its substitutions
C1: P 2.28 | S 1.7 | D 2.42 | M 1.5
Y14: S 1.83 | P 1.91 | F 2.66 | W 2.93 | C 2.15 | V 2.19 | T 1.44 | N 1.53
M18: K 1.91 | C 2.26 | Y 2.48 | T 2.15 | W 3.11 | I 3.21 | P 1.62 | L 2.48 | N 1.46
G13: I 2.92 | P 1.73 | W 3.56 | K 1.51 | N 2.32 | Q 2.49 | S 1.95 | M 3.5 | D 1.98
K22: P 1.79 | T 2.27 | D 3.84 | L 3.43 | A 3.59 | C 1.85 | V 3.73
G12: I 2.47 | H 2.92 | F 2.23 | D 2.39 | R 2.52 | K 2.13 | Q 2.89 | L 2.9 | C 3.07 | N 3.82 | S 1.46 | A 3.1
Y9: T 2.18 | R 3.35 | C 3.86 | E 2.28 | K 1.36 | I 1.86 | S 1.51
A20: T 3.02 | Q 3.05
W16: S 2.01 | K 1.94
L4: K 2.18 | S 1.49 | W 1.6 | P 1.74 | V 1.79 | R 2.33
S23: L 5.74 | N 1.79 | D 1.96 | M 2.48 | A 2.92 | C 2.2 | G 1 | I 2.8 | Q 2.73 | Y 1.98
S17: Q 2.79 | K 2.48 | D 1.52 | A 3.94 | M 1.49 | G 2.69 | T 2.27 | Y 2.9 | W 3.53 | I 1.92
L10: M 1.95 | D 1.94 | E 1.33 | G 2.23 | Y 2.08 | A 1.55 | H 1.59
S15: Y 1.87 | D 2.34 | W 2.25 | T 2.38 | V 3.31 | H 1.65 | E 1.03 | M 4.83 | K 2.83 | G 2.88 | A 3.83
I8: E 1.13 | S 1.73 | L 2.23 | M 2.62 | P 1.93 | C 3.23 | H 1.93 | K 1.77 | V 2.52
D6: P 2.97 | H 2.9 | R 3.76 | M 4.25
Y21: M 2.65 | H 2.64 | I 2.99 | T 1.24 | E 1.45 | R 2.45 | F 3.42 | Q 2.35
D5: P 2.72 | E 2.7 | W 3.27 | G 1.41
G19: H 3.16 | V 1.97 | Y 3.83 | R 2.98 | Q 1.62 | L 3.64 | C 3 | T 2.01
S24: A 4.41 | F 2.96 | D 1.06 | K 2.36 | N 2.53 | R 1.75
A2: Q 1.93 | Y 2.32 | K 2.85 | R 1.3
S7: I 2.49 | F 2.81 | H 2.24 | E 1.99 | G 3.23 | M 2.99 | R 1.84
V3: T 2.94 | A 2.03 | M 2.9 | R 2.4
V11: W 1.7 | Y 2.44 | K 2.1 | D 1.94 | S 2.21 | N 2.2 | I 3.25 | F 1.6 | P 1.56
